Experiment: yeast display, Sf9 membrane polyspecificity reagent, FACS + sequencing; frameworks hold sequencing errors
Summary of the method: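 Nanobodies from a synthetic yeast display library (Saccharomyces cerevisiae BJ5465), induced 36–48 hours with galactose, were stained 1 hour at 4 °C with 10% biotinylated, detergent-solubilized Sf9 membrane reagent, enriched on streptavidin microbeads, then FACS-sorted. Anti-HA (expression) and streptavidin (reagent binding) fluorescence set low and high (top ~1%) gates. Polyreactivity labels come from the gate of origin. Genes were colony-PCR amplified, MiSeq 2 × 250 sequenced and filtered by CDR length.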

| Sequence | polyreactivity (PSR sort gate) |
| --- | --- |
| QVQLVESGGGLVQAGGSLRLTSAASGRTFGTNPMGWYRQETGKERELVDAISRRGGSTYYADSVKARFTISRDNAKNTVNLQMNSLKPEDTAVYYCAKTIGLKHEDEYWGQGTQVTVSS | low polyreactivity |
| QVQLVESGGGLVQAGGSLRLSCAASGSIFPRNAMGWYRQAPGKERELVASINSGGSTKYADSVKGRFTISRDNAKNTLYLQMNSLKPEDTAVYYCAAVRPWWRNKPQWPRYDYCGQGTQVTVSS | low polyreactivity |
| QVQLVESVGGLVQAGGSLRLSCAASGSTFAANAMGWYRQAPGKASELVAAITSVGTTYYADSVKGRFTISRDNGKNTVYLQMNSLKPEDTEVYYCNAEYGVWYDYLVVPYDYWGQGTQVTVSS | low polyreactivity |
| QVQLVESGGGLVQAGGSLRLSCAASGSIFVLYAMGWYRKAPGKERELVAAISRGVGGTNYADSVKGRFTISRDNAKITVYLQMNSLKPEDTAVYYCAAQTLRWSHYYYWGQGTQVTVSS | high polyreactivity |
| QVQLVETGGGLVQAGGSLRISCAPSGSTFAGYAMGWYRQAPGKERELVAAISYSGGTTYYADSVKGRFTISRDNAKNTVYLQMNSLKPEDTAVYYCAARKKYKTPSNDMYYWGQGTQVTVSS | high polyreactivity |
| QVQLVESGGGLVQAGGRLRLSCAASGNTFDYYAMGWYRPAPGKERELVAAITRGGSTNYADSVKGRFTISRDNAKNTVYLQMNSLKPEDTAVYYCAAEQRAPRFADYDYWGQGTQVTVSS | low polyreactivity |
| QVQLVESGGGLVQAGGSLRLSCAASGSISVRNVMGWYRQAPGKERELVATIRRTGGSTSYADSVKGRFTISRDNAKNTVYLQLNSLKPEDTAVYDCADVRYTTYRRYEYWGQGTQVTVSS | low polyreactivity |
| QVQLVESGGGLVQAGGSLRLSCAASGRTFRYYAMGWYRQAPGKEREFVAAITSRSSRTYYADSVKGRFTISRDNAKNTVYLQMNSLKPEDTAVYYCNADYRRYPEFDYWGQGTQVTVSS | high polyreactivity |
| QVQLVESGGGLVQAGGSLRLSCAASGFTFGQYAMGWYRQAPGKERELVAAISWSGGSTYYADSVKGRFTISRDNAKNTVYLQMNSLKPEDTAVYYCGEDLGDYWGQGTQVTVSS | high polyreactivity |
| QVQLVESGGDLVQAGGSLRLSCAASGSIFCYYVMGWYRQAPGKERELVAAITVSGAGTYNADSVKGRFTISRDNAKNTVYLQMNSLKPEDTAVYYCAARWLGHFYPFFLQGLSGFDYWGQGTQVTVSS | low polyreactivity |
| QVQLVESGGGLVQAGGSLRLSCSASGFIFRFYGMGWYRQAPGKERELVASIRRSGGSTYYADSVKGRFTISRDNAKNSVYLQMNSLKPEDTAVYDCAARWYVYVHFERYYWGQGTQVTVSS | high polyreactivity |
| QVQLVESGGGLVQAGGSLRLSCAASGFIFVVNAMGWYRQAPGKEREFVAVISSSTGSTYYADSVKGRFTISRDNAKNTVYLQMNSLKPEDTAVYYCAAASRRRRPLNRMDYWGQGTQVTVSS | low polyreactivity |
| QVQLVESGGGLVQAGGSLRLSCAASGSTFPYYAMGWYRQAPGKEMELVASIRKRGGGTYYADSVKGRFTISRDNAKNTVYLQMNSLKPEDTAVYYCAVRVYQFRYTGYDYWGQGTQVTVSS | high polyreactivity |
| QVQLVESGGGLVQAGGSLRLSCAASGSTFYRYAMGWYRQAPGKERELVARIRLSGTSTYYADSVKGRFTISRDNAKNTVYLQMNSLKPEDTAVYYCAAELYSRNWRSQYDYWGQGSQVTVSS | high polyreactivity |
| QVQLVESGGGLVQAGGSLRLSCAASGRIFRTYTMGWYRQAPGKERELVAAITSGSSTYYADSVKGRFTISRDNAKNTVYLQMHSLKPEDTAVYYCATEWSIGRHLYTYNYWGPGTQVTVSS | high polyreactivity |
| QVQLVESGGGLVQAGGSLRLSCAASGLTFVDYDMGWYRQAPGKERELVADINSGGYTYYADSVKGRFTISRDNAKNTVYLQMNSLKPEDTAVYYCAADDGWGYISSYDYEYWGQGTQVTVSS | high polyreactivity |

| Sequence | polyreactivity (PSR sort gate) |
| --- | --- |
| QVQHVESGGGLFQAGGSLRLSCAASGRIFSYYAMGWYRQAPGKERELVAAINWNGGRTYYADSVKGRFTISRDNAKNSVYLQMNSLKPEDTAVYYCNARYSGKYDYWRQGTQVTVSS | high polyreactivity |
| QVQLVESGGGLVQAGGSLRLSCAASGRTLDVNAMGWYRQAPGKEKELVAAIDWGVGTTYYADSVKGRFTISRDNAKNTVYLQMNSLKPEDTAVYYCSVDVYYSVYGYPVQYYYWGQGNQVTVSS | high polyreactivity |
| QVQLEESCGGLVQAGGSLRLSCAASGSTFTIYAMGWYRQAPGKERELVAVISSSGGSTYYADSVKGRFTISRDNAKNTVYLQMNSLKPEDTAVYYCAADTRYFGGYLTLYYWGQGTQVTVSS | low polyreactivity |
| QVQLVESGGGLVQAGGSLRLSCAASGRIFQKNAMGWYRQAPGKERELVAAISGSGSTTNYADSVKGRFTISRDNAKNTVYLQLNSLTPEDTAVYYCATGKRGVSGRGFRYDYWGQGTQVTVSS | high polyreactivity |
| QVQLVESGGGLVQEGGSLRLICAASGGIFIYNAMGWYRQEPGKEREFVAAINISGGNTYYADSVKGRFTISRDNAKNTVYLQMNSLKPEDTAVYYCAARYASSWWIRYYYWGQGTQVSVSS | high polyreactivity |
| QVQLQESGGGLVQAGGSLLSCAASGTISYYREMGWYRQAPGKERELVAGIGVGTITYYADSVKGRITISRDNAKNTVYLQMNSLKPEDTAVYYCEAHIDGNDSHAYWGQGTQVTVSS | low polyreactivity |
| QVQLVESGGGLDQAGGSLRLSCAASGSTFVFYAMVWYIQAPGKEREFVAAITNSGSNTYYADSVKGRFTISRDNAKMTVNLQMNSLKPEDTAVYYCAARPFGRYRGRYYYWGQGTQVTVSS | high polyreactivity |
| QVQLVESGGGLVQAGGSLRLSCDASGSTFRANAMGWYRQAPGKERELVAAISWSGGRTYYADSVKGRFTISRDNAKNTVYLQMNSLKPEYTAVYYCAAPKLTSYDSWGQGTQVTVSS | high polyreactivity |
| QVQLVESGGGLVQAGGSLRLSCAASGFIFPRYAMGWYRQAPGKERELVAAISYSGGSTYYADSVKGRFTISRDNAKNTVYLQMNSLKPEDTAVYYCNTAPWWRTSSDYEYWGQGTQVTVSS | high polyreactivity |
| QVQLVESGGGLGQAGGSLRLSCAASGRIFGGYTMGWYRQAPGKEREFVDTISRSSGSTYYADSVKGRFTISRDHAKNTVYLQMNSLKPEDTAVYYCAAVYLYATGYDYWGQCTQVTVSS | high polyreactivity |
| QVQLVESGAGLVQAGGSLRLSCAASGTIFRDYAMGWYRQAPGKERELVAAISSDGSTYYADSVKGRFTISRDNAKNTVYLEMNSLKPEDTAAYYCNARSYYPWEGFDYWGQGTQVTVSS | low polyreactivity |
| QVQLVESGGGLVQAGGSLRLSCAASGSTFYVNAMGWNRQAPGKEREFVAAISWSGGSTYYADSVKGRFTISRDNAKNTVYLQMNSLKPEDTAVYYCAADRVRKDGVLFDYWGQGTQVTVSS | high polyreactivity |
| QVQLVESGGGLVQAGGSLRLSCAASGYTFTQNAMGWYRQAPGKERELVASITSGGSTDYADSVKGRFTISRDNAKNTVYLQMNSLKPEDTAVYYCAKDYYAYSDYDYWGQGTQVTVSS | low polyreactivity |
| QVQLEESGGGLVQAGGSLRLSCAASGSIFRGYAMGWYRQAPGKERELVAAITWGGGSTYADSVKGRFTISRDNAKNTVYLQMNSLKPEDTAVYYCAARYVSRYYVYRGFEYWGQGTQVTVSS | high polyreactivity |
| QVQLVESGGGLVQAGGSLRLSCAASGSTFYHYVMGWYRQAPGKERELGAAISWRGGRTYYADSVKGRFTISRDTAKNTVYLQMNSLKPEDTAVYYCARAYFQPSYYGVEYNYWGQGTQVTVSS | high polyreactivity |
| QVKLVDSGGGLVQAGGSLRLTCAASGITFDKYAMGWYRQAPGKERELVAAITKSSGSTYYADSVKGRFTISRVNAKNTDYLQMNSLKAEDTAVYYCAAGIVYCEYFWGQGTQVTVSS | high polyreactivity |

— the nanobody polyreactivity screen of Harvey et al. (2022)
